# PMC11199699
# Changes are numbered by the printed parent chain. Names and notes keep the numbering of the source.
# B1: L-KDFDH (FucF; C785_RS13675) (Herbaspirillum huttiense subsp. putei IAM 15032) (protein)
# chain: MSASTGRLAGKTVLITAAAQGIGRASTELFAREGARVIATDISKTHLEELASIAGVETHLLDVTDDDAIKALVAKVGTVDVLFNCAGYVAAGNILECDDKAWDFSFNLNAKAMFHTIRAVLPGMLAKKAGSIVNIASAASSVKGVANRFAYGASKAAVVGLTKSVAADFVSQGIRCNAICPGTIESPSLNQRISTQAKETGKSEDEVRAAFVARQPMGRIGKAEEVAALALYLASDESNFTTGSIHMIDGGWSN
# notes: pQE-80L, N-terminal (His)6-tag, expressed in E. coli, Ni-NTA; homotetramer; EC 1.1.1.434
# B2: L-KDFDH (FucF; C785_RS13675) (Herbaspirillum huttiense subsp. putei IAM 15032; D41S/I42R) (protein)
# chain: B1 chain with D41S, I42R
# notes: as for B1
# B3: L-KDFDH (FucF; C785_RS13675) (Herbaspirillum huttiense subsp. putei IAM 15032; W252M) (protein)
# chain: B1 chain with W252M
# notes: as for B1
# B4: BDH2 (Homo sapiens) (protein)
# chain: MGRLDGKVIILTAAAQGIGQAAALAFAREGAKVIATDINESKLQELEKYPGIQTRVLDVTKKKQIDQFANEVERLDVLFNVAGFVHHGTVLDCEEKDWDFSMNLNVRSMYLMIKAFLPKMLAQKSGNIINMSSVASSVKGVVNRCVYSTTKAAVIGLTKSVAADFIQQGIRCNCVCPGTVDTPSLQERIQARGNPEEARNDFLKRQKTGRFATAEEIAMLCVYLASDESAYVTGNPVIIDGGWSL
# notes: recombinant (His)6-tagged, expressed in E. coli, purified
# What was measured:
# Assay in all cases: purified protein
# purified protein [1] = substrate: NC(=O)c1ccc[n+]([C@@H]2O[C@H](COP(=O)(O)OP(=O)(O)OC[C@H]3O[C@@H](n4cnc5c(N)ncnc54)[C@H](O)[C@@H]3O)[C@@H](O)[C@H]2O)c1; type: biochemical, Herbaspirillum huttiense; conditions: 10 mM substrate, 50 mM Tris-HCl pH 8.0, 30 °C, varied: cofactor
# purified protein [2] = substrate: O=C(O)C(=O)C[C@H](O)[C@@H](O)CO; type: biochemical, Herbaspirillum huttiense; conditions: 1.5 mM NAD+, 50 mM Tris-HCl pH 8.0, 30 °C
# purified protein [3] = substrate: O=C(O)C(=O)C[C@@H](O)CO; type: biochemical, Herbaspirillum huttiense; conditions: 1.5 mM NAD+, 50 mM Tris-HCl pH 8.0, 30 °C
# purified protein [4] = substrate: O=C(O)[C@@H]1C[C@@H](O)CN1; type: biochemical, Herbaspirillum huttiense; conditions: 1.5 mM NAD+, 50 mM Tris-HCl pH 8.0, 30 °C
# purified protein [5] = substrate: O=C(O)[C@H]1C[C@@H](O)CN1; type: biochemical, Herbaspirillum huttiense; conditions: 1.5 mM NAD+, 50 mM Tris-HCl pH 8.0, 30 °C, substrate range 1-10 mM (Km extrapolated)
# purified protein [6] = substrate: O=C(O)[C@@H]1C[C@H](O)CN1; type: biochemical, Herbaspirillum huttiense; conditions: 1.5 mM NAD+, 50 mM Tris-HCl pH 8.0, 30 °C
# purified protein [7] = substrate: O=C(O)C(=O)C[C@H](O)CO; type: biochemical, Herbaspirillum huttiense; conditions: 1.5 mM NAD+, 50 mM Tris-HCl pH 8.0, 30 °C
# purified protein [8] = substrate: C[C@@H](O)CC(=O)O; type: biochemical, Herbaspirillum huttiense; conditions: 1.5 mM NAD+, 50 mM Tris-HCl pH 8.0, 30 °C
# purified protein [9] = substrate: C[C@H](O)[C@@H](O)CC(=O)C(=O)O; type: biochemical, Herbaspirillum huttiense; conditions: 1.5 mM NAD+, 50 mM Tris-HCl pH 8.0, 30 °C
# purified protein [10] = substrate: NC(=O)c1ccc[n+]([C@@H]2O[C@H](COP(=O)(O)OP(=O)(O)OC[C@H]3O[C@@H](n4cnc5c(N)ncnc54)[C@H](OP(=O)(O)O)[C@@H]3O)[C@@H](O)[C@H]2O)c1; type: biochemical, Herbaspirillum huttiense; conditions: 10 mM substrate, 50 mM Tris-HCl pH 8.0, 30 °C, varied: cofactor
# purified protein [11] = substrate: O=C(O)C(=O)C[C@H](O)[C@H](O)CO; type: biochemical, Herbaspirillum huttiense; conditions: 1.5 mM NAD+, 50 mM Tris-HCl pH 8.0, 30 °C
# purified protein [12] = substrate: O=C(O)[C@@H]1C[C@H](O)CN1; type: biochemical, Homo sapiens; conditions: 1.5 mM NAD+, 50 mM Tris-HCl pH 8.0, 30 °C
# purified protein [13] = substrate: C[C@@H](O)CC(=O)O; type: biochemical, Homo sapiens; conditions: 1.5 mM NAD+, 50 mM Tris-HCl pH 8.0, 30 °C, substrate range 1-10 mM (Km extrapolated)
# purified protein [14] = substrate: C[C@H](O)[C@@H](O)CC(=O)C(=O)O; type: biochemical, Homo sapiens; conditions: 1.5 mM NAD+, 50 mM Tris-HCl pH 8.0, 30 °C
protein,measurement,setting,value
B1,Km,purified protein [1],30.2 ± 3 µM
same,kcat,purified protein [1],29.2 ± 1.3 s⁻¹
same,kcat/Km,purified protein [1],972000 ± 58700 M⁻¹ s⁻¹
same,Km,purified protein [2],808 ± 73 µM
same,kcat,purified protein [2],19.8 ± 1.2 s⁻¹
same,kcat/Km,purified protein [2],24700 ± 750 M⁻¹ s⁻¹
same,Km,purified protein [3],5510 ± 660 µM
same,kcat,purified protein [3],3.37 ± 0.183 s⁻¹
same,kcat/Km,purified protein [3],615 ± 36.7 M⁻¹ s⁻¹
same,Km,purified protein [4],2260 ± 270 µM
same,kcat,purified protein [4],0.00165 ± 0.000105 s⁻¹
same,kcat/Km,purified protein [4],0.737 ± 0.045 M⁻¹ s⁻¹
same,Km,purified protein [5],37800 ± 11500 µM
same,Km,purified protein [6],4190 ± 350 µM
same,kcat,purified protein [6],0.742 ± 0.0233 s⁻¹
same,kcat/Km,purified protein [6],178 ± 10 M⁻¹ s⁻¹
same,Km,purified protein [7],2580 ± 240 µM
same,kcat,purified protein [7],27.5 ± 2.03 s⁻¹
same,kcat/Km,purified protein [7],10700 ± 267 M⁻¹ s⁻¹
same,Km,purified protein [8],1790 ± 570 µM
same,kcat,purified protein [8],0.00137 ± 0.000167 s⁻¹
same,kcat/Km,purified protein [8],0.795 ± 0.137 M⁻¹ s⁻¹
same,Km,purified protein [9],115 ± 15 µM
same,kcat,purified protein [9],15 ± 0.317 s⁻¹
same,kcat/Km,purified protein [9],132000 ± 14000 M⁻¹ s⁻¹
same,Km,purified protein [10],1770 ± 300 µM
same,kcat,purified protein [10],0.0678 ± 0.01 s⁻¹
same,kcat/Km,purified protein [10],38.5 ± 1 M⁻¹ s⁻¹
same,Km,purified protein [11],6600 ± 550 µM
same,kcat,purified protein [11],8.25 ± 0.35 s⁻¹
same,kcat/Km,purified protein [11],1250 ± 55 M⁻¹ s⁻¹
B2,Km,purified protein [10],200 ± 4 µM
same,kcat,purified protein [10],3.6 ± 0.0667 s⁻¹
same,kcat/Km,purified protein [10],18050 ± 83.3 M⁻¹ s⁻¹
B3,Km,purified protein [9],219 ± 6 µM
same,kcat,purified protein [9],6.62 ± 0.167 s⁻¹
same,kcat/Km,purified protein [9],30000 ± 83.3 M⁻¹ s⁻¹
B4,Km,purified protein [12],220 ± 61 µM
same,kcat,purified protein [12],4.88 ± 0.5 s⁻¹
same,kcat/Km,purified protein [12],22800 ± 3670 M⁻¹ s⁻¹
same,Km,purified protein [13],18500 ± 2900 µM
same,kcat,purified protein [13],0.0698 ± 0.00483 s⁻¹
same,kcat/Km,purified protein [13],3.8 ± 0.333 M⁻¹ s⁻¹
same,Km,purified protein [14],32.2 ± 3.3 µM
same,kcat,purified protein [14],3.67 ± 0.183 s⁻¹
same,kcat/Km,purified protein [14],114000 ± 5830 M⁻¹ s⁻¹
